Reference: patent US9540613B2, “Methods for producing insulin-secreting beta cells from human pluripotent stem cells” (Wisconsin Alumni Research Foundation, priority 2013, dated 2017)

Legend:
[1] = test system: PDX1 and insulin protein expression in H1 cells; assay: Flow cytometry of PDX1 and insulin protein expression at end of Stage 4; assay type: cell-based, human
Source text: To quantify insulin and PDX1 protein expression we optimized a flow cytometry assay. […] The INS-1 cell line is an immortalized pancreatic beta cell line that expresses both PDX1 and insulin. On the bottom left, is our negative control, unstained H1 cells differentiated for 18 days. On the right, is H1 cells differentiated by the current protocol through day 18 stained with Insulin-PB and PDX1-AF488. […] Only 8-11% of the cells are PDX1 and insulin double positive.
To examine protein expression we collected cells at the end of Stage 4 and examined them by flow cytometry.
Thus, the effect of Noggin is context dependent and synergistic with nicotinamide and Exendin-4.

[2] = test system: PDX1, NKX6.1, Neurogenin 3 and insulin gene expression; assay: QPCR gene expression of endoderm and pancreatic markers in differentiated cells; assay type: cell-based, human
Procedure: QPCR was performed at the end of Stage 4 ([…] Day 18) to examine gene expression of PDX1, a marker of pancreatic epithelium and progenitor cells, insulin, a marker of beta cells, and Sox9 which is expressed in the developing pancreatic epithelium. The gene expression is compared to undifferentiated cells collected at Day 0 and β-Actin is the internal control. […] Human Fetal Pancreas (HFP), gestation 14-20 weeks, is represented as a positive control.
In FIG. 19, the gene expression is compared to undifferentiated cells collected at Day 0 and B-Actin is the internal control. On the y axis is delta CT (instead of fold change), thus, the lower the value the greater the gene expression.
First, alterations at Stage 3 and 4 altered gene expression minimally. […] On the y axis is delta CT (instead of fold change), thus, the lower the value the greater the gene expression. […] In contrast the addition of Noggin at Stage 4, decreased PDX1 and NKX6.1 gene expression and increased Neurogenin 3 expression. There was no difference in insulin gene expression following the addition of Noggin to Stage 4.

[3] = test system: insulin protein expression; assay: Immunohistochemistry of insulin protein expression after Stage 4; assay type: cell-based, human; details: addition of Noggin at Stage 4
Procedure: Immunohistochemistry was performed at the end of Stage 4 (Day 18) to examine protein expression of Insulin and NKX6.1.

[4] = test system: human pluripotent stem cells; assay: Replacement of FGF2 by other FGFs in Stage 1 differentiation; assay type: cell-based; details: FGF used in Stage 1 medium
Source text: In some embodiments, the FGF used in Stage 1 is selected from the group consisting of FGF2, FGF4, FGF7, FGF10 and the mixtures thereof. […] Thus, one would use any one of FGF4, FGF7 and FGF10 to replace FGF2 in Stage 1. One may also use mixtures of two or more of FGF2, FGF4, FGF7 and FGF10 in this stage. In a specific embodiment, the FGF in Stage 1 is FGF2.

B1: Noggin: a protein which in humans is encoded by the NOG gene; inhibits TGF-β signal transduction (protein, UniProt Q13253 28-232, looked up)
Noggin: QHYLHIRPAPSDNLPLVDLIEHPDPIFDPKEKDLNETLLRSLLGGHYDPGFMATSPPEDRPGGGGGAAGGAEDLAELDQLLRQRPSGAMPSEIKGLEFSEGLAQGKKQRLSKKLRRKLQMWLWSQTFCPVLYAWNDLGSRFWPRYVKVGSCFSKRSCSVPEGMVCKPSKSVHLTVLRWRCQRRGGQRCGWIPIQYPIISECKCSC
[1]; Noggin in the context of ITSFINE
  double positive cells: increases double positive cells
[1]; addition of Noggin at Stage 4 (ITSFINE)
  insulin expression: increases insulin expression
[1]; addition of Noggin in the absence of nicotinamide and Exendin-4 (ITSFI)
  double positive cells: does not further increase the double positive cells
[2]; addition of Noggin at Stage 4
  NKX6.1 gene expression: decreased
  Neurogenin 3 expression: increased
  PDX1 gene expression: decreased
[2]; addition of Noggin to Stage 4
  insulin gene expression: no difference
[3]
  clustering and insulin protein expression: increased clustering and insulin protein expression
  hormonal status of insulin-expressing cells: a majority of those cells are still polyhormonal

B2: FGF4: fibroblast growth factor family ligand (protein, UniProt P08620 31-206, looked up)
Fibroblast growth factor 4: APTAPNGTLEAELERRWESLVALSLARLPVAAQPKEAAVQSGAGDYLLGIKRLRRLYCNVGIGFHLQALPDGRIGGAHADTRDSLLELSPVERGVVSIFGVASRFFVAMSSKGKLYGSPFFTDECTFKEILLPNNYNAYESYKYPGMFIALSKNGKTKKGNRVSPTMKVTHFLPRL
[4]
  effects in Stage 1 relative to FGF2: comparable to FGF2

B3: FGF7: fibroblast growth factor 7 (protein, UniProt P21781 32-194, looked up)
Fibroblast growth factor 7: CNDMTPEQMATNVNCSSPERHTRSYDYMEGGDIRVRRLFCRTQWYLRIDKRGKVKGTQEMKNNYNIMEIRTVAVGIVAIKGVESEFYLAMNKEGKLYAKKECNEDCNFKELILENHYNTYASAKWTHNGGEMFVALNQKGIPVRGKKTKKEQKTAHFLPMAIT
[4]
  effects in Stage 1 relative to FGF2: comparable to FGF2

B4: FGF10: fibroblast growth factor family ligand (protein, UniProt O15520 38-208, looked up)
Fibroblast growth factor 10: QALGQDMVSPEATNSSSSSFSSPSSAGRHVRSYNHLQGDVRWRKLFSFTKYFLKIEKNGKVSGTKKENCPYSILEITSVEIGVVAVKAINSNYYLAMNKKGKLYGSKEFNNDCKLKERIEENGYNTYASFNWQHNGRQMYVALNGKGAPRRGQKTRRKNTSAHFLPMVVHS
[4]
  effects in Stage 1 relative to FGF2: comparable to FGF2
